Results as given in patent publication US20220153851A1 (Five Prime, published 2022).

Experiments:
[1] = molecular target: T1, hCSF1R ECD.506-Fc (human); assay: ELISA, plate coated with human CSF1R ECD-Fc
T1 construct: also called human CSF1R ECD-Fc fusion protein; human CSF1R ECD
Procedure: (§1) Ninety-six well clear-bottom ELISA plates were coated overnight with 1 μg/ml recombinant hCSF1R ECD.506-Fc (SEQ ID NO: 6; FivePrime Therapeutics) or Human M-CSF R Fc Chimera (R&D Systems) in PBS. The next morning, wells were washed four times with 0.05% Tween20 in PBS (PBST) and blocked with Blocker-Blotto (Pierce). Fifty μl of 0.5× serial dilutions of the humanized antibody or parental chimeric antibody, beginning with 2000 ng/ml, diluted 1:1 in Blocker-Blotto were added to the CSF1R-coated wells. After incubation at room temperature (RT) for 90 min, wells were washed four times with PBST, and a 1:5000 dilution of a peroxidase-conjugated Goat anti-Human kappa Light chain antibody (Sigma) in Blocker-Blotto was added to each well. After incubation at RT for 60 min, wells were washed four times with PBST, and 50 μl o-phenylenediamine dihydrochloride peroxidase substrate (Sigma) was added to each well. After incubation at RT for 30 min, A450 values of each well were read directly on a SpectraMaxPlus spectrophotometer with SoftMaxPro software (Molecular Devices).

[2] = molecular target: T2, cynoCSF1R ECD-Fc (cynomolgus); assay: competition ELISA, blocking of human CSF1 binding to cynoCSF1R ECD-Fc
T2 construct: also called cynomolgus CSF1R ECD
Procedure: The humanized antibodies, along with the parental chimeric antibodies (cAbs), were tested for their ability to block human CSF1 binding to human and cynomolgus CSF1R ECD, as follows.
Recombinant Human CSF1 (M-CSF; R&D Systems) was biotinylated using an NH₂-Biotin Labeling Kit (Dojindo Molecular Technologies). One hundred μl of 1 μg/ml biotinylated CSF1 in PBST/0.1% BSA was added to the wells of Reacti-Bind Streptavidin coated plates (Pierce) pre-blocked with SuperBlock blocking buffer (Pierce) according to the manufacturer's instructions. Fifty μl of 0.5× serial dilutions of the humanized antibody or parental chimeric antibody, beginning with 2000 ng/ml, was incubated with 50 ng/ml hCSF1R ECD.506-Fc (SEQ ID NO: 6; FivePrime Therapeutics) or 50 ng/ml cynoCSF1R ECD-Fc (FivePrime Therapeutics, SEQ ID NO: 8, but without the 19 amino acid leader sequence) in 100 μl PBST/0.1% BSA for 90 min at RT, after which the admix was transferred to one or more wells of a ligand-coated plate. After 90 min at RT, wells were washed with PBST, and a 1:5000 dilution of an Fc-fragment-specific peroxidase-conjugated goat anti-human IgG (Jackson Immuno Research) in PBST/0.1% BSA was added to each well. After incubation at RT for 60 min, wells were washed with PBST/0.1% BSA, and o-phenylenediamine dihydrochloride peroxidase substrate (Sigma) was added to each well. After incubation at RT for 30 min, A450 values of each well were read directly on a SpectraMaxPlus spectrophotometer with SoftMaxPro software (Molecular Devices).

[3] = molecular target: T3, human CSF1R on CSF1R (SEQ ID NO: 2)-transfected CHO cells (human, UniProt P07333 20-972); assay: cell-based or functional assay
[4] = molecular target: T4, mCSF1R ECD-Fc (mouse); assay: ELISA, plate coated with mCSF1R ECD-Fc, detection anti-human kappa-HRP, A450
T4 construct: also called mouse CSF1R ECD
Procedure: as §1
(§2) The binding curve for each humanized antibody binding to mouse CSF1R ECD was determined as described above for human CSF1R, except the wells of the clear-bottom ELISA plates were coated overnight with 2 μg/ml recombinant mCSF1R ECD-Fc (FivePrime Therapeutics, SEQ ID NO: 93).

[5] = molecular target: T5, hCSF1R ECD.506 (human, UniProt P07333 20-506); assay: SPR Biacore T100, antibody captured on anti-human IgG, hCSF1R ECD.506 as analyte, 1:1 model
T5 construct: also called human CSF1R ECD
Procedure: The kₐ, kd, and KD for binding to human CSF1R ECD was determined for each of the humanized antibodies as follows.
Binding kinetics of anti-CSF1R humanized antibodies to CSF1R ECD was determined using Biacore T100 Surface Plasmon Resonance (SPR) (GE Healthcare Life Sciences, Piscataway, N.Y.). Each of the humanized anti-CSF1R antibodies was captured on a CM5 sensor chip immobilized with anti-Human IgG antibody using the Human antibody capture kit (GE Healthcare Life Sciences, Piscataway, N.Y.) at 150 RU so that the Rmax value for hCSF1R ECD.506 (SEQ ID NO: 5) binding was 100 RU. Rmax values of less than 150 RU are recommended for accurately determining kinetic values. […] The association constant, dissociation constant, affinity, and binding capacity of each of the Fabs for human CSF1R ECD was calculated using the Biacore T100 Evaluation software package using the 1:1 binding model.

[6] = molecular target: T3, human CSF1R on CSF1R (SEQ ID NO: …); assay: cell-based or functional assay; remark: listed apart in the source
[7] = molecular target: T2, cynoCSF1R ECD-Fc; assay: competition ELISA, blocking of human IL34 binding to cynoCSF1R ECD-Fc
[8] = molecular target: T2, cynoCSF1R ECD-Fc; assay: ELISA, plate coated with cynoCSF1R ECD-Fc
Procedure: as §1
as §2, with “cynomolgus” for “mouse”, “cynoCSF1R” for “mCSF1R”, “8, but without the 19 amino acid leader sequence).” for “93).”

[9] = molecular target: T3, human CSF1R on CSF1R (SEQ ID NO: …); assay: cell-based or functional assay; remark: listed apart in the source
[10] = molecular target: T3, human CSF1R on CSF1R (SEQ ID NO: …); assay: cell-based or functional assay; remark: listed apart in the source

| Binder | EC50 [1] [µg/mL] | IC50 [2] [µg/mL] | IC50, inhibition of CSF1-induced CSF1R phosphorylation (head prints 'Human CSF1/Human CSF1R ECD IC50') [3] [µg/mL] | IC50, inhibition of IL34-induced CSF1R phosphorylation (head prints 'Human IL34/Human CSF1R ECD IC50') [3] [µg/mL] | binding result [4] | Kd [5] [nM] | koff [5] [s⁻¹] | kon [5] [M⁻¹ s⁻¹] | IC50 (read off the curve), CSF1-induced CSF1R phosphorylation [6] [µg/mL] | IC50 [7] [µg/mL] | EC50 [8] [µg/mL] | IC50 (read off the curve), IL34-induced CSF1R phosphorylation [9] [µg/mL] | CSF1 blocking IC50 (ligand-induced CSF1R phosphorylation in CHO cells) [10] [µg/mL] | IL34 blocking IC50 (ligand-induced CSF1R phosphorylation in CHO cells) [10] [µg/mL] |
| --- | --- | --- | --- | --- | --- | --- | --- | --- | --- | --- | --- | --- | --- | --- |
| h0302-L1H2 (antibody, human IgG4 S228P, kappa, V domains shown, also called Ab11; huAb 0302-L1H2) VH: QVQLVQSGAEVKKPGSSVKVSCKASGYTFSDFNIHWVRQAPGQGLEWIGYINPYTDVTVYNEKFKGRATLTSDKSTSTAYMELSSLRSEDTAVYYCASYFDGTFDYALDYWGQGTLVTVSS VL: EIVLTQSPATLSLSPGERATLSCRASESVDNYGLSFMNWYQQKPGQAPRLLIYTASNLESGIPARFSGSGSRTDFTLTISSLEPEDFAVYYCQQSKELPWTFGQGTKVEIKR | 0.0221 | 1.08 | 0.598 | 0.495 | no binding (tested: 2000 ng/ml) | 0.56 | 0.00153 | 2.71e+06 | ~0.6 | 0.541 | 0.172 | – | – | – |
| h0302-L2H2 (antibody, human IgG4 S228P, kappa, V domains shown, also called Ab12; huAb 0302-L2H2) VH: QVQLVQSGAEVKKPGSSVKVSCKASGYTFSDFNIHWVRQAPGQGLEWIGYINPYTDVTVYNEKFKGRATLTSDKSTSTAYMELSSLRSEDTAVYYCASYFDGTFDYALDYWGQGTLVTVSS VL: EIVVTQSPATLSLSPGERATLSCRASESVDNYGLSFMNWFQQKPGQAPRLLIYTASNLESGIPARFSGSGSRTDFTLTISSLEPEDFAVYYCQQSKELPWTFGQGTKVEIKR | 0.0101 | 0.838 | 0.354 | 0.24 | no binding (tested: 2000 ng/ml) | 0.46 | 0.00084 | 1.84e+06 | – | 0.279 | 0.018 | – | – | – |
| cAb 0302 (antibody, human IgG4 S228P, kappa) heavy: not shown light: DVVVTQTPASLAVSLGQRATISCRASESVDNYGLSFMNWFQQKPGQPPKLLIYTASNLESGIPARFSGGGSRTDFTLTIDPVEADDAATYFCQQSKELPWTFGGGTRLEIKRTVAAPSVFIFPPSDEQLKSGTASVVCLLNNFYPREAKVQWKVDNALQSGNSQESVTEQDSKDSTYSLSSTLTLSKADYEKHKVYACEVTHQGLSSPVTKSFNRGEC | 0.0159 | 0.0331 | 0.264 | 0.351 | no binding (tested: 2000 ng/ml) | – | – | – | ~0.3 | 0.0494 | 0.0173 | – | – | – |
| cAb 0311 (antibody, human IgG4 S228P, kappa, V domains shown) VH: EIQLQQSGPDLMKPGASVKMSCKASGYIFTDYNMHWVKQNQGKSLEWMGEINPNNGVVVYNQKFKGTTTLTVDKSSSTAYMDLHSLTSEDSAVYYCTRALYHSNFGWYFDSWGKGTTLTVSS VL: DIVLTQSPASLAVSLGQRATISCKASQSVDYDGDSHMNWYQQKPGQPPKLLIYTASNLESGIPARFSGSGSGADFTLTIHPVEEEDAATYYCQQGNEDPWTFGGGTRLEIKR | 0.0176 | 0.0435 | 0.577 | 0.994 | no binding (tested: 2000 ng/ml) | – | – | – | – | 0.0521 | 0.0201 | ~1 | – | – |

Continued, values first:

| EC50 [1] [µg/mL] | IC50 [2] [µg/mL] | IC50, inhibition of CSF1-induced CSF1R phosphorylation (head prints 'Human CSF1/Human CSF1R ECD IC50') [3] [µg/mL] | IC50, inhibition of IL34-induced CSF1R phosphorylation (head prints 'Human IL34/Human CSF1R ECD IC50') [3] [µg/mL] | binding result [4] | Kd [5] [nM] | koff [5] [s⁻¹] | kon [5] [M⁻¹ s⁻¹] | IC50 (read off the curve), CSF1-induced CSF1R phosphorylation [6] [µg/mL] | IC50 [7] [µg/mL] | EC50 [8] [µg/mL] | IC50 (read off the curve), IL34-induced CSF1R phosphorylation [9] [µg/mL] | CSF1 blocking IC50 (ligand-induced CSF1R phosphorylation in CHO cells) [10] [µg/mL] | IL34 blocking IC50 (ligand-induced CSF1R phosphorylation in CHO cells) [10] [µg/mL] | Binder |
| --- | --- | --- | --- | --- | --- | --- | --- | --- | --- | --- | --- | --- | --- | --- |
| 0.0133 | 0.0308 | 0.419 | 0.578 | no binding (tested: 2000 ng/ml) | 0.4 | 0.000609 | 1.51e+06 | – | 0.0486 | 0.0203 | ~0.6 | – | – | h0311-L1H2 (antibody, human IgG4 S228P, kappa, V domains shown, also called Ab16; huAb 0311-L1H2) VH: QVQLVQSGAEVKKPGSSVKVSCKASGYIFTDYNMHWVRQAPGQGLEWMGEINPNNGVVVYNQKFKGTTTLTVDKSTSTAYMELSSLRSEDTAVYYCTRALYHSNFGWYFDSWGQGTLVTVSS VL: DIVLTQSPATLSLSPGERATLSCKASQSVDYDGDSHMNWYQQKPGQAPRLLIYTASNLESGIPARFSGSGSGADFTLTISSLEPEDFAVYYCQQGNEDPWTFGQGTKVEIKR |
| 0.0134 | 0.0276 | 1.03 | 0.433 | no binding (tested: 2000 ng/ml) | 0.35 | 0.00111 | 3.22e+06 | – | 0.0359 | 0.0151 | – | 0.305 | 0.341 | h0301-L0H0 (antibody, human IgG4 S228P, kappa, also called Ab1; huAb 0301-L0H0) heavy: not shown light: EIVLTQSPATLSLSPGERATLSCKASQSVDYDGDNYMNWYQQKPGQAPRLLIYAASNLESGIPARFSGSGSGTDFTLTISSLEPEDFAVYYCHLSNEDLSTFGGGTKVEIKRTVAAPSVFIFPPSDEQLKSGTASVVCLLNNFYPREAKVQWKVDNALQSGNSQESVTEQDSKDSTYSLSSTLTLSKADYEKHKVYACEVTHQGLSSPVTKSFNRGEC |
| 0.0134 | 0.0255 | 6.15 | 0.378 | no binding (tested: 2000 ng/ml) | 0.35 | 0.00115 | 3.29e+06 | – | 0.0348 | 0.0119 | – | 0.213 | 0.242 | h0301-L1H0 (antibody, human IgG4 S228P, kappa, also called Ab4; huAb 0301-L1H0) heavy: not shown light: NIVLTQSPATLSLSPGERATLSCKASQSVDYDGDNYMNWYQQKPGQAPRLLIYAASNLESGIPARFSGSGSGTDFTLTISSLEPEDFAVYYCHLSNEDLSTFGGGTKVEIKRTVAAPSVFIFPPSDEQLKSGTASVVCLLNNFYPREAKVQWKVDNALQSGNSQESVTEQDSKDSTYSLSSTLTLSKADYEKHKVYACEVTHQGLSSPVTKSFNRGEC |
